B1: MST1 SARAHmyc (domain or fragment)
chain: DYEFLKSWTVEDLQKRLLALDPMMEQEIEEIRQKYQSKRQPILDAIEAKKRRQQNF
B2: S-RASSF5 SARAH (domain or fragment)
chain: GEVEWDAFSIPELQNFLTILEKEEQDKIQQVQKKYDKFRQKLEEALRESQGKPG

Molecular target: the molecule itself
Assay: native MS

Protein | binding result
B1 | binds
B2 | binds
